Experimental data: patent US20030143760A1
Each block holds one substance with its values, some of them ahead of it.

Columns and labels:
PHF-tau (human) [1] = biological target: PHF-tau (human) (UniProt P10636); test: competition ELISA on PHF-tau captured by polyclonal anti-tau; biotinylated AT8, unlabeled competitor AT8 at 10 ug/ml
PHF-tau (human) [2] = biological target: PHF-tau (human) (UniProt P10636); test: competition ELISA on PHF-tau captured by polyclonal anti-tau; biotinylated AT8, unlabeled competitor AT120 at 10 ug/ml
PHF-tau (human) [3] = biological target: PHF-tau (human) (UniProt P10636); test: sandwich ELISA: AT120 coated, tau at 0 pg/ml (blank), detection with biotinylated BT2 + HT7
[4] = biological target: affinity-purified human normal tau (human) (UniProt P10636); test: as above
PHF-tau (human) [5] = biological target: PHF-tau (human) (UniProt P10636); test: sandwich ELISA: AT120 coated, tau at 10 pg/ml spiked in tau-negative CSF, detection with biotinylated BT2 + HT7
[6] = biological target: affinity-purified human normal tau (human) (UniProt P10636); test: as above
PHF-tau (human) [7] = biological target: PHF-tau (human) (UniProt P10636); test: sandwich ELISA: AT120 coated, tau at 20 pg/ml spiked in tau-negative CSF, detection with biotinylated BT2 + HT7
[8] = biological target: affinity-purified human normal tau (human) (UniProt P10636); test: as above
PHF-tau (human) [9] = biological target: PHF-tau (human) (UniProt P10636); test: sandwich ELISA: AT120 coated, tau at 40 pg/ml spiked in tau-negative CSF, detection with biotinylated BT2 + HT7
[10] = biological target: affinity-purified human normal tau (human) (UniProt P10636); test: as above
PHF-tau (human) [11] = biological target: PHF-tau (human) (UniProt P10636); test: sandwich ELISA: AT120 coated, tau at 80 pg/ml spiked in tau-negative CSF, detection with biotinylated BT2 + HT7
[12] = biological target: affinity-purified human normal tau (human) (UniProt P10636); test: as above
PHF-tau (human) [13] = biological target: PHF-tau (human) (UniProt P10636); test: sandwich ELISA: AT120 coated, tau at 160 pg/ml spiked in tau-negative CSF, detection with biotinylated BT2 + HT7
[14] = biological target: affinity-purified human normal tau (human) (UniProt P10636); test: as above
PHF-tau (human) [15] = biological target: PHF-tau (human) (UniProt P10636); test: competition ELISA on PHF-tau captured by polyclonal anti-tau; biotinylated AT120, unlabeled competitor AT8 at 10 ug/ml
PHF-tau (human) [16] = biological target: PHF-tau (human) (UniProt P10636); test: competition ELISA on PHF-tau captured by polyclonal anti-tau; biotinylated AT120, unlabeled competitor AT120 at 10 ug/ml
PHF-tau (human) [17] = biological target: PHF-tau (human) (UniProt P10636); test: competition ELISA on PHF-tau captured by polyclonal anti-tau; biotinylated BT2, unlabeled competitor BT2 at 10 ug/ml
PHF-tau (human) [18] = biological target: PHF-tau (human) (UniProt P10636); test: competition ELISA on PHF-tau captured by polyclonal anti-tau; biotinylated BT2, unlabeled competitor AT120 at 10 ug/ml

Absorbance (PHF-tau (human) [1]): 0.001 absorbance | Absorbance (PHF-tau (human) [2]): 0.372 absorbance
Substance: monoclonal antibody AT8

absorbance (milliabsorbance units) (milliabsorbance units) (PHF-tau (human) [3]): 92 | absorbance (milliabsorbance units) (milliabsorbance units) [4]: 87 | absorbance (milliabsorbance units) (milliabsorbance units) (PHF-tau (human) [5]): 143 | absorbance (milliabsorbance units) (milliabsorbance units) [6]: 154 | absorbance (milliabsorbance units) (milliabsorbance units) (PHF-tau (human) [7]): 257 | absorbance (milliabsorbance units) (milliabsorbance units) [8]: 256 | absorbance (milliabsorbance units) (milliabsorbance units) (PHF-tau (human) [9]): 566 | absorbance (milliabsorbance units) (milliabsorbance units) [10]: 678 | absorbance (milliabsorbance units) (milliabsorbance units) (PHF-tau (human) [11]): 901 | absorbance (milliabsorbance units) (milliabsorbance units) [12]: 970 | absorbance (milliabsorbance units) (milliabsorbance units) (PHF-tau (human) [13]): 1680 | absorbance (milliabsorbance units) (milliabsorbance units) [14]: 1610 | Absorbance (PHF-tau (human) [15]): 0.476 absorbance | Absorbance (PHF-tau (human) [16]): 0.001 absorbance
Substance: monoclonal antibody AT120

Absorbance (PHF-tau (human) [17]): 0.054 absorbance | Absorbance (PHF-tau (human) [18]): 0.543 absorbance
Substance: monoclonal antibody BT2
